The assay has as its target T1, FLAG-Htt103Q-GFP (Huntingtin with 103Q glutamine stretch, lacking the proline-rich region) (UniProt P42858 1-17).
T1 chain: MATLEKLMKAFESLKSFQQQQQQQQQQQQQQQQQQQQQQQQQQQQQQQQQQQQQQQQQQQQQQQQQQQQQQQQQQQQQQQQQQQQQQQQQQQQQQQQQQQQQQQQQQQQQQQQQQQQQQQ
The assay can be described thus: co-IP.

B1: Ssa1 (Hsp70) (natural protein)
chain: not shown
Take B1: the “fold change of the co-precipitate, Sti1 elevated against endogenous Sti1” value is greater than 2 fold.

B2: Sis1 (type II Hsp40) (natural protein)
chain: MVKETKLYDLLGVSPSANEQELKKGYRKAALKYHPDKPTGDTEKFKEISEAFEILNDPQKREIYDQYGLEAARSGGPSFGPGGPGGAGGAGGFPGGAGGFSGGHAFSNEDAFNIFSQFFGGSSPFGGADDSGFSFSSYPSGGGAGMGGMPGGMGGMHGGMGGMPGGFRSASSSPTYPEEETVQVNLPVSLEDLFVGKKKSFKIGRKGPHGASEKTQIDIQLKPGWKAGTKITYKNQGDYNPQTGRRKTLQFVIQEKSHPNFKRDGDDLIYTLPLSFKESLLGFSKTIQTIDGRTLPLSRVQPVQPSQTSTYPGQGMPTPKNPSQRGNLIVKYKVDYPISLNDAQKRAIDENF
Turning to B2, the “fold change of the co-precipitate, Sti1 elevated against endogenous Sti1” value was roughly 4 fold.

For the origin of these results see PMC3842988 (Molecular Biology of the Cell, 2013).
